Source: US6043211A, “Method for inhibiting the activity of a platelet-derived growth factor receptor binding protein” (The Regents of the University of California, priority 1995, dated 2000)
Entries after “also recorded” stand apart in the source; their conditions may differ. Square brackets hold non-standard residues; d marks the D form. Ends that are not written are not given here. Peptide text beside a SMILES is read from it. pY = N[C@@H](Cc1ccc(OP(=O)(O)O)cc1)C(=O)O

Key:
[1] = target: T1, 85 kD protein association with type B PDGF receptor (Mus musculus, UniProt P26450); assay: In vitro association of 85 kD phosphoprotein with immobilized baculovirus-expressed PDGF receptor (in vitro kinase assay); format: binding; details: peptides (50 μM) preincubated with unstimulated 3T3 lysate, FIG. 4a
T1 construct: Cytoplasmic cell lysates from density-arrested BALB/c 3T3 cells were mixed with the immobilized receptor; endogenous in cells; host or cells: BALB/c 3T3 cell lysate (85 kD protein); receptor made in Sf9 insect cells with recombinant baculovirus
T1 sequence (P26450 whole entry): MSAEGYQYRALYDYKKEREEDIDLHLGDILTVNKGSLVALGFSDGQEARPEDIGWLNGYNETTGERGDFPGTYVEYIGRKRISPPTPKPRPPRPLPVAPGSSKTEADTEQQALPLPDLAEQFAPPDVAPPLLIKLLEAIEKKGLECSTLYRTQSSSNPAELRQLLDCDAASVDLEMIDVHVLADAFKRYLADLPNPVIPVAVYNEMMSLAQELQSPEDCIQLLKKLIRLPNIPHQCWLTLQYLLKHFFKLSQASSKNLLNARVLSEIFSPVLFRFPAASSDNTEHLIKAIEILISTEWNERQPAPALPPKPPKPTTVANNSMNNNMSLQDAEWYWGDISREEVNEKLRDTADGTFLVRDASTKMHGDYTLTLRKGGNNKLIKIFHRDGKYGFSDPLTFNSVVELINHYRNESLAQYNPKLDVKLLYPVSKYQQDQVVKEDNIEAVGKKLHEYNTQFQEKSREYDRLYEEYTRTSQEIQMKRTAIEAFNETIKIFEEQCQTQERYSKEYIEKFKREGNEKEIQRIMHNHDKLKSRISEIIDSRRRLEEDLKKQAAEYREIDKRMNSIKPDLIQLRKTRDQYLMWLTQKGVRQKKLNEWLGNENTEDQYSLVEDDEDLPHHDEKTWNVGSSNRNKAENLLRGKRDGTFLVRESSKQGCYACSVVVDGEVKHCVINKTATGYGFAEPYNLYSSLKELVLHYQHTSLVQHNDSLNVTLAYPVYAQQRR
T1 sequence (P42337 whole entry partner): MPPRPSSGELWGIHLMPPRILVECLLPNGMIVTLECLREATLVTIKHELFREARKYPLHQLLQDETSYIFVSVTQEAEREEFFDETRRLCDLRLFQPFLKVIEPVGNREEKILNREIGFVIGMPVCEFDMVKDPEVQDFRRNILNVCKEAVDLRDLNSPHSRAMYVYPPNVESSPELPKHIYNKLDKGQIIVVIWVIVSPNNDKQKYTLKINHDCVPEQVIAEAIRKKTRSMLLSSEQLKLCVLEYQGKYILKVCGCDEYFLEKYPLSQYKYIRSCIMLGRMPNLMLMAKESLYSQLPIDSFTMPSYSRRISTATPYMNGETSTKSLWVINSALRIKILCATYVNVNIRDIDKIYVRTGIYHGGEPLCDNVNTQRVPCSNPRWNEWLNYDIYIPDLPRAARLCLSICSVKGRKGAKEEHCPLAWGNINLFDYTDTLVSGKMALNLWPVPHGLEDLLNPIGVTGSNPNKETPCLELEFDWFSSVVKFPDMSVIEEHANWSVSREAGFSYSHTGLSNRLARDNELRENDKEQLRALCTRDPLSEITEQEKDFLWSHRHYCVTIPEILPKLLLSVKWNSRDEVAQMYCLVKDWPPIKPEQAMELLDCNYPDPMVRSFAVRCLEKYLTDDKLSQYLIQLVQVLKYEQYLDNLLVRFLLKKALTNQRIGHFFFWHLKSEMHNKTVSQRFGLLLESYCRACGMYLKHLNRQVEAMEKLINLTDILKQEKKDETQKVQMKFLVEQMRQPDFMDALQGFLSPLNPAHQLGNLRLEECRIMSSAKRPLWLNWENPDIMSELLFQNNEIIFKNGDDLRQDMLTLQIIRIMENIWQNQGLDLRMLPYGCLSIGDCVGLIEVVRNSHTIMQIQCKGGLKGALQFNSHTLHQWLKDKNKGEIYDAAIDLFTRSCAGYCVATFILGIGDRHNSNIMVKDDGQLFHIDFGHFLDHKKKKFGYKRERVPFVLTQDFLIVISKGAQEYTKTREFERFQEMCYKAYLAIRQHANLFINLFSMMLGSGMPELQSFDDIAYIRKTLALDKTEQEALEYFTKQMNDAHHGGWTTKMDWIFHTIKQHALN
Excerpt: In in vitro experiments, the type B PDGF receptor was expressed in an insect cell expression system, partially purified, and immobilized using anti-receptor antibodies and protein A Sepharose. The receptor was allowed to autophosphorylate in vitro, so that it would be in a conformation that mimicked the ligand-activated state of the receptor. Cytoplasmic cell lysates from density-arrested BALB/c 3T3 cells were mixed with the immobilized receptor and the complexes were washed extensively. […] The receptor-associated phosphoproteins were detected by an in vitro kinase assay using ^32 P-ATP.
To determine the ability of a series of synthetic peptides derived from this sequence to block the interaction between the receptor and the 85 kD/PI3 kinase activity, 3T3 lysates were incubated with the different peptides prior to mixing with immobilized receptor. […] The other lanes show the proteins that associated with the receptor in the presence of derivatives of the Y719 peptide.
Infected cells were washed twice with cold PBS and lysed in 1 ml of lysis buffer (1% NP-40, 20 mM Tris (pH 8.0), 173 mM NaCl, 10% glycerol, 2 mM EDTA, 1 mM phenylmethylsulfonylfluoride (PMSF), aprotinin (0.15 U/ml), 20 μM leupeptin, 1 mM sodium orthovanadate) at 4° C. for 20 min with rocking. In most experiments (except where indicated in the legend of FIG. 3) the immunoprecipitated receptor was autophosphorylated in vitro by incubating the immune complexes in a buffer containing 20 mM Tris (pH 7.5), 20 mM MnCl, 100 μM ATP for 15 min at 25° C. Lysates were cleared of insoluble material by centrifugation at 13,000× g for 10 min. Lysates were incubated with receptor antibodies (1:500 dilution) for 4 h at 4° C. Receptor-antibody complexes were precipitated using Protein-A sepharose (Sigma) and washed consecutively with RIPA buffer (lysis buffer with 0.1% SDS), wash buffer 1 [0.5% NP-40, 0.5 M LiCl, 50 mM Tris (pH 7.4)] and with 10 mM Tris (pH 7.4). The PI3 kinase association assay was performed by incubating the immobilized receptor with BALB c/3T3 cell lysates for 3 hours at 4° C. The immune complexes were consecutively washed with cold PBS; 0.5% NP-40, 0.5 M LiCl and 51 50 mM Tris (pH 7.4).

[2] = target: T2, PI3 kinase association with type B PDGF receptor (Mus musculus, UniProt P26450); assay: In vitro association of PI3 kinase activity with immobilized baculovirus-expressed PDGF receptor; format: binding; details: for Blocking of association of PI3 kinase activity with the receptor: peptides (50 μM) preincubated with unstimulated 3T3 lysate, FIG. 4b
T2 construct: Cytoplasmic cell lysates from density-arrested BALB/c 3T3 cells were mixed with the immobilized receptor; endogenous in cells; host or cells: BALB/c 3T3 cell lysate (85 kD protein); receptor made in Sf9 insect cells with recombinant baculovirus
T2 sequence (P26450 whole entry): as the sequence (P26450 whole entry) above
T2 sequence (P42337 whole entry partner): as the sequence (P42337 whole entry partner) above
Excerpt: An in vitro system was used to study the interaction of PDGF receptors and PI3 kinase. […] These phosphoproteins include the 85 kDa protein and a 110 kDa protein that have recently been correlated with PI3 kinase activity. In in vitro experiments, the type B PDGF receptor was expressed in an insect cell expression system, partially purified, and immobilized using anti-receptor antibodies and protein A Sepharose. The receptor was allowed to autophosphorylate in vitro, so that it would be in a conformation that mimicked the ligand-activated state of the receptor. Cytoplasmic cell lysates from density-arrested BALB/c 3T3 cells were mixed with the immobilized receptor and the complexes were washed extensively. PI3 kinase activity was found in the complex of proteins associated with the receptor (FIG. 1d). The receptor-associated phosphoproteins were detected by an in vitro kinase assay using ^32 P-ATP. At least four receptor-associated proteins with apparent molecular weights of 140 kD, 120/110 kD (sometimes a doublet), 85 kD and 74 kD were radiolabeled (the bands at 160 kD and 150 kD are the baculovirus-expressed receptor and its precursor, respectively). The 140 kD band has been previously identified as […] and the band at 74 kD includes the raf-1 kinase and probably another molecule as well. The 85 kD protein co-migrated with the 85 kD band, previously considered to be PI3 kinase, in anti-phosphotyrosine immunoprecipitates of cell lysates prepared from PDGF-stimulated cells. The association of 85 and 110 kD proteins with the baculovirus-expressed receptor was also observed by silver stain analysis.
To determine the ability of a series of synthetic peptides derived from this sequence to block the interaction between the receptor and the 85 kD/PI3 kinase activity, 3T3 lysates were incubated with the different peptides prior to mixing with immobilized receptor. […] The arrow indicates the position of the 85 kD protein that co-purified with the PI3 kinase activity. […]

85 kD protein = target: T3, 85 kD protein (Mus musculus, UniProt P26450); assay: Receptor blot: 32P-labeled PDGF receptor probe binding to immobilized 85 kD protein; details: 2.5 μM peptide, FIG. 7
T3 construct: Cytoplasmic cell lysates from density-arrested BALB/c 3T3 cells were mixed with the immobilized receptor; endogenous in cells; host or cells: BALB/c 3T3 cell lysate (85 kD protein); receptor made in Sf9 insect cells with recombinant baculovirus
T3 sequence (P26450 whole entry): as the sequence (P26450 whole entry) above
T3 sequence (P42337 whole entry partner): as the sequence (P42337 whole entry partner) above
Excerpt: FIG. 7 illustrates the association of soluble radiolabeled receptor with immobilized 85 kD protein ("receptor blot"). Baculovirus-expressed PDGF receptors were immunoprecipitated using receptor antibodies and the receptor was ^32 P-labeled in vitro by autophosphorylation. The solubilized radiolabeled receptor was used to probe nitrocellulose filters containing SDS-polyacrylamide gel-fractionated lysates from control (lanes 1, 3, 4 and 5) or PDGF stimulated (lane 2) cells. In the peptide competition experiments (lane 3, 4, and 5) the peptides were added to the nitrocellulose paper along with the radiolabeled receptor probe. The arrow indicates the position of the 85 kD protein.
To determine the nature of the interaction of the receptor with the 85 kD protein, a modification of Western blotting methodology was used. PDGF receptor from Sf9 cells infected with PDGF receptor baculovirus was immuno precipitated with receptor antibodies, labeled with ^32 P in vitro, and used as a probe to bind proteins from 3T3 cell lysates that had been separated electrophoretically and transferred to nitrocellulose. The radiolabeled PDGF receptor bound directly to an 85 kDa protein in unstimulated 3T3 cell lysate (FIG. 7, lane 1). […] The direct binding interaction appears to involve the 20 amino acid segment in the kinase insert region containing tyrosine 719, and tyrosine phosphorylation of this segment appears to be necessary for the interaction.
Cell lysate proteins transferred to nitrocellulose membranes were analyzed for their ability to bind directly to the PDGF receptor by probing the nitrocellulose membrane with ^32 P-labeled PDGF receptor. To prepare the radiolabeled receptor probe, baculovirus-expressed receptor was immunoprecipitated from 10^6 Sf9 cells. The immune complexes were washed and labeled by autophosphorylation as described above. Labeled receptor was solubilized from the immunoprecipitates by repeated incubation of the immunoprecipitate in solubilization buffer (0.4% SDS, 100 mM NaCl, 2 mM EDTA, 2 mM β-mercaptoethanol, and 50 mM triethanolamine, pH 7.4) at 100° C. for 2 min. […]

[3] = target: T4, transfected type B human receptor (Homo sapiens, UniProt P09619); assay: Competitive binding of PDGF forms against 125I-PDGF on CHO transfectants (CHO-HR5)
T4 construct: expressed in transfected cells; host or cells: CHO (clone CHO-HR5), plasmid pSVRH5
T4 sequence (P09619 33-1106): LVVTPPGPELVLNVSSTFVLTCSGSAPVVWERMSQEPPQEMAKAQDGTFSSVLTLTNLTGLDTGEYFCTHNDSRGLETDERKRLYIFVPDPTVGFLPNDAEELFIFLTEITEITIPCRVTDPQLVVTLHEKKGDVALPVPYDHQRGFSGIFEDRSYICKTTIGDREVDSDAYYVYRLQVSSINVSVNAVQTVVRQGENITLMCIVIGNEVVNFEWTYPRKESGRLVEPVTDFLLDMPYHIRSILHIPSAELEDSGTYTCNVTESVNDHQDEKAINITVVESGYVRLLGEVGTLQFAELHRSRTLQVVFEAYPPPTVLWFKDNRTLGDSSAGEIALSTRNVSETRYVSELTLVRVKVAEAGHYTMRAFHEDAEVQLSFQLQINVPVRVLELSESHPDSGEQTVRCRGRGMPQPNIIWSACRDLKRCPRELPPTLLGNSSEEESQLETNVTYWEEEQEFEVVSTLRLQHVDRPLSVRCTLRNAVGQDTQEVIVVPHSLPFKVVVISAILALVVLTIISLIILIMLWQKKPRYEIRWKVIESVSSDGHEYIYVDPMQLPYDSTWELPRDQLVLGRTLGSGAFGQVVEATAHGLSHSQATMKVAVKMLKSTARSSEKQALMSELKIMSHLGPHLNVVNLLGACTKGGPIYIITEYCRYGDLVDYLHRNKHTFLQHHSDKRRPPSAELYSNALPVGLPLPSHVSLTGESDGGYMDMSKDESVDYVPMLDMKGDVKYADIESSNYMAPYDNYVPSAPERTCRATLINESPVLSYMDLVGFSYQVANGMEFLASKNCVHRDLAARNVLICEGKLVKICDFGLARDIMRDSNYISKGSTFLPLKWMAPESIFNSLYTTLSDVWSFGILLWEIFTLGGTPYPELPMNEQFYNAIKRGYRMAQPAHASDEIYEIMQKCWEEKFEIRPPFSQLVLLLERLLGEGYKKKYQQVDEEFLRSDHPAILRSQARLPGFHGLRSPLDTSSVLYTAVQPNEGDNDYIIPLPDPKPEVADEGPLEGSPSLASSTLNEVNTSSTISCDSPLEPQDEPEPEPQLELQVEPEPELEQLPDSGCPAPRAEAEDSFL
Protocol: Binding was carried out at 37° C. for 45 min in whole cell suspension.

native mouse receptor = assay: Competitive binding of PDGF forms against 125I-PDGF on BALB/c 3T3 cells; details: mouse 3T3 cells, yeast-expressed homodimers
Excerpt: The ability of the human recombinant AA and BB homodimers to compete for the type B receptor sites and displace ^125 I-labeled PDGF (prepared as described below) was studied. Each homodimer was produced selectively by a yeast expression system and was purified from yeast media that is devoid of other mesenchymal cell growth factors, thus avoiding the artifact of contamination by factors that might be present in mammalian expression systems.
BALB/c 3T3 cells and CHO transfectants (CHO-HR5) were incubated with ^125 I-PDGF in the presence of increasing concentrations of AA or BB. Binding was carried out at 37° C. for 45 min in whole cell suspension. Unbound, radiolabeled PDGF was removed by centrifugation on a Ficoll gradient Non-specific binding, determined by incubating CHO cells with ^125 I-PDGF, accounted for 25 percent of the bound radioactivity.

[4] = target: T5, type B receptor tyrosine kinase (Homo sapiens, UniProt P09619); assay: Activation of PDGF receptor tyrosine kinase (autophosphorylation, anti-phosphotyrosine Western blot) in CHO-HR5; format: cell-based; details: transfected human receptor
T5 construct: expressed in transfected cells; host or cells: CHO (clone CHO-HR5), plasmid pSVRH5
T5 sequence (P09619 33-1106): as above
Excerpt: Following polyacrylamide-SDS electrophoresis, the phosphorylated receptor was identified by Western blot using an anti-phosphotyrosine antibody.

Row | Compound | Blocking of binding of the 85 kD phosphoprotein to the receptor [1] | Effect on association of radiolabeled receptor with immobilized 85 kD protein (receptor blot) (85 kD protein) | other results
1 | CC[C@H](C)[C@H](NC(=O)[C@H](CO)NC(=O)[C@H](CCC(=O)O)NC(=O)[C@H](CC(=O)O)NC(=O)[C@H](CCCCN)NC(=O)[C@H](CO)NC(=O)[C@H](CCSC)NC(=O)[C@H](CC(=O)O)NC(=O)[C@H](CCSC)NC(=O)[C@H](Cc1ccc(OP(=O)(O)O)cc1)NC(=O)CNC(=O)CN)C(=O)N[C@@H](CC(=O)O)C(=O)O [Y708P short] | had blocking activity | – | –
2 | CC[C@H](C)[C@H](NC(=O)[C@H](CO)NC(=O)[C@H](CCC(=O)O)NC(=O)[C@H](CC(=O)O)NC(=O)[C@H](CCCCN)NC(=O)[C@H](CO)NC(=O)[C@H](CCSC)NC(=O)[C@H](CC(=O)O)NC(=O)[C@H](CCSC)NC(=O)[C@H](Cc1ccc(OP(=O)(O)O)cc1)NC(=O)CNC(=O)CN)C(=O)N[C@@H](CC(=O)O)C(=O)N[C@@H](Cc1ccc(OP(=O)(O)O)cc1)C(=O)N[C@H](C(=O)N1CCC[C@H]1C(=O)N[C@@H](CCSC)C(=O)N[C@@H](CC(C)C)C(=O)N[C@@H](CC(=O)O)C(=O)N[C@@H](CCSC)C(=O)O)C(C)C [Y708P/Y719P] | blocked binding of the 85 kD protein | – | –
3 | CC[C@H](C)[C@H](NC(=O)[C@H](CO)NC(=O)[C@H](CCC(=O)O)NC(=O)[C@H](CC(=O)O)NC(=O)[C@H](CCCCN)NC(=O)[C@H](CO)NC(=O)[C@H](CCSC)NC(=O)[C@H](CC(=O)O)NC(=O)[C@H](CCSC)NC(=O)[C@H](Cc1ccc(O)cc1)NC(=O)CNC(=O)CN)C(=O)N[C@@H](CC(=O)O)C(=O)N[C@@H](Cc1ccc(OP(=O)(O)O)cc1)C(=O)N[C@H](C(=O)N1CCC[C@H]1C(=O)N[C@@H](CCSC)C(=O)N[C@@H](CC(C)C)C(=O)N[C@@H](CC(=O)O)C(=O)N[C@@H](CCSC)C(=O)O)C(C)C [Y719P] | blocked the binding of the 85 kD phosphoprotein | failed to associate with the 85 kD protein | IC50 [2]: ~5 µM
4 | CC[C@H](C)[C@H](NC(=O)[C@H](CO)NC(=O)[C@H](CCC(=O)O)NC(=O)[C@H](CC(=O)O)NC(=O)[C@H](CCCCN)NC(=O)[C@H](CO)NC(=O)[C@H](CCSC)NC(=O)[C@H](CC(=O)O)NC(=O)[C@H](CCSC)NC(=O)[C@H](Cc1ccc(O)cc1)NC(=O)CNC(=O)CN)C(=O)N[C@@H](CC(=O)O)C(=O)N[C@@H](Cc1ccc(O)cc1)C(=O)N[C@H](C(=O)N1CCC[C@H]1C(=O)N[C@@H](CCSC)C(=O)N[C@@H](CC(C)C)C(=O)N[C@@H](CC(=O)O)C(=O)N[C@@H](CCSC)C(=O)O)C(C)C [Y719] (H-GGYMDMSKDESIDYVPMLDM-OH) | No change in the pattern of receptor-associated protein | did not interfere with the association of the receptor with the 85 kD protein | –
5 | AA: Human recombinant AA homodimer of PDGF produced by a yeast expression system | – | – | Relative affinity for the transfected type B human receptor ([3]; CHO-HR5, yeast-expressed homodimers): lower affinity than the BB form; Competition for 125I-PDGF labeled sites ([3]; human receptor transfectants, 37° C., 45 min): competed; Relative affinity for the native mouse receptor (native mouse receptor): lower affinity than the BB form; Activation of type B receptor tyrosine kinase (autophosphorylation) [4]: stimulated autophosphorylation of the transfected human receptor; also recorded: activates the receptor tyrosine kinase of the type B receptor
6 | AB: Human partially purified platelet-derived AB PDGF heterodimer | – | – | Activation of type B receptor tyrosine kinase (autophosphorylation) [4]: stimulated autophosphorylation of the transfected human receptor
7 | MDMSKDESIDYVPMLDM (MDMSKDESID[pY]VPMLDM) [Y719P short] | blocked binding of the 85 kD protein; also recorded: had blocking activity | – | Blocking of association of PI3 kinase activity with the receptor [2]: inhibited the association of PI3 kinase activity with the receptor
8 | MMDIKVPMDEYMSDYSDLGG (MMDIKVPMDE[pY]MSDYSDLGG; not fully specified; printed as MMDIKVPMDE*YMSDYSDLGG) [Y719P scrambled] | failed to block binding of the 85 kD protein | did not interfere with the association of the receptor with the 85 kD protein | Blocking of association of PI3 kinase activity with the receptor [2]: did not prevent the association of PI3 kinase activity with the receptor
